The values below come from patent US20210238276A1 (INTEGRAL MOLECULAR, published 2021).

Common to all, as to experiment: flow cytometry, alanine-scan library in HEK-293T, with cytochalasin B
Background: A flow cytometer gives signals particle by particle.

One test addresses T1, hsGLUT4 G356A (human, UniProt P14672 1-509).
T1 sequence: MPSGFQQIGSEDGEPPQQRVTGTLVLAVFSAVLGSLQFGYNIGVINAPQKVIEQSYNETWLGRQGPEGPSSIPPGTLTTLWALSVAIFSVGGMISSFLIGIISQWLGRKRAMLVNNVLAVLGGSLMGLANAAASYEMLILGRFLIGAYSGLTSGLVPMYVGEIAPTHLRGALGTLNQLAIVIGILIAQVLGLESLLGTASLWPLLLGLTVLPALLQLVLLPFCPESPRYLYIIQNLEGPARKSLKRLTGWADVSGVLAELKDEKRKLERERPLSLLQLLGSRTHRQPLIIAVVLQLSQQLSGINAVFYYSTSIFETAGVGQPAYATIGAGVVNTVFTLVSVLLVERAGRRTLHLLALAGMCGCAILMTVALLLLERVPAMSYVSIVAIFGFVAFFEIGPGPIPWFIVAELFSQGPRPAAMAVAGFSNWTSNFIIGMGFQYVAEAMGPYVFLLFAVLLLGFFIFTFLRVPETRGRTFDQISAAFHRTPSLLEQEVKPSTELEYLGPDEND
How it is done:
(§1) Because of the state-dependence of the isolated MAbs, we next wished to understand the mechanism by which each MAb could recognize GLUT4 in its different conformations. The residues required for binding of each MAb were determined using shotgun mutagenesis comprehensive alanine scanning (Davidson E & Doranz B J (2014) A High-Throughput Shotgun Mutagenesis Approach to Mapping B-cell Antibody Epitopes. Immunology, which is hereby incorporated by reference in its entirety). All residues of hsGLUT4 were individually mutated to alanine, with existing alanines changed to serines. Mutations were obtained for 508 of the 509 residues of GLUT4 (excluding the initiating methionine). The entire mutation library was transfected into human HEK-293T cells in a 384-well array format (one clone per well) and assessed for immunoreactivity using high-throughput flow cytometry.
(§2) HEK-293T cells were transfected by CaPO₄ with plasmids in 6-well culture plates (Falcon) at 750,000 cells/well. At 48 hours post transfection, cells were stained with anti-V5 and anti-GLUT4 MAbs (purified scFv, 2 μg/ml) followed by biotinylated goat anti-mouse or human antibody (1:500) and streptavidin-PerCP (1:500). Fluorescence was detected using an Intellicyt high-throughput flow cytometer (HTFC; Intellicyt, Albuquerque, N. Mex.). For cell permeabilization, cells were treated with saponin at 0.1% in PBS for 20 minutes. To discriminate intact (live) and permeabilized (dead) cells without the use of detergent, propidium iodide (PI) was added to HEK-293T cells at 1 ug/ml just prior to flow cytometry. Where indicated, cytochalasin B (Sigma) was used at a final concentration of 10 uM and phloretin (Sigma) was used at a final concentration of 100 uM, each added in 10% NGS for 30 minutes prior to antibody staining as well as included with the primary antibody.

The next test concerns the target T2, hsGLUT4 G446A (human, UniProt P14672 1-509).
T2 sequence: T1 sequence with A356G, G446A
How it is done:
as §1, §2

Another test deals with T3, hsGLUT4 Q295A (human, UniProt P14672 1-509).
T3 sequence: T1 sequence with Q295A, A356G
How it is done:
as §1, §2

Another test has as its target T4, hsGLUT4 F307A (human, UniProt P14672 1-509).
T4 sequence: T1 sequence with F307A, A356G
How it is done:
as §1, §2

Residue numbers refer to the chain shown, from its start.

B1: AB102 (Fc fusion)
scFv: ALTQPSSVSANLGGTVKITCSGGGSYGYGWYQQKSPGSAPVTVIYSNDQRPSDIPSRFSGSKSGSTATLTITGVRAEDEAIYYCGSTDSDYVGIFGAGTTLTVLGQSSRSSGGGGSSGGGGSAVTLDESGGGLQTPGGTLSLVCKASGFDFSSYATIWVRQAPGKGLEWVAGISGTGTGSSTGYAPAVKGRATISRDNGQSTVRLQLNNLRAEDTGSYFCAKSTGYGDSWIYPDSIDAWGHGTEVIVSS
notes: also called MAb AB102; not shown: Fc fragment of human IgG1, cloned in frame with the scFv
Take B1: the “% of binding to wild type GLUT4” value with hsGLUT4 G356A stood at 72%; with hsGLUT4 G446A, 43%; in the test with hsGLUT4 Q295A, 89%; with hsGLUT4 F307A it was 22%.
